Values joined by “and” are separate entries in the source; they are usually repeats but may differ in a detail not shown here. Equal values may be shown once. Values belong to the molecule of their own block, whether it stands above or below them.
Legend:
VEGF165 [1] = molecular target: VEGF165 (UniProt P15692); assay: VEGF binding assay
VEGF165 [2] = molecular target: VEGF165 (UniProt P15692); assay: VEGF binding assay; after 56 days incubation at 45 C
VEGF165 [3] = molecular target: VEGF165 (UniProt P15692); assay: competitive VEGF ELISA; panel A
VEGF165 [4] = molecular target: VEGF165 (UniProt P15692); assay: competitive VEGF ELISA; panel B
VEGF165 [5] = molecular target: T1, VEGF165 (UniProt P15692 27-191); assay: Biacore; 100RU VEGF
T1 chain: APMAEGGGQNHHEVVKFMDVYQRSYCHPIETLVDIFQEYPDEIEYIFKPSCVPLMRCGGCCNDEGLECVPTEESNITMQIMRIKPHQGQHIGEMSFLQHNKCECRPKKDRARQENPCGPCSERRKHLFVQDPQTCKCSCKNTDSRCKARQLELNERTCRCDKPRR

VEGF165 [6] = molecular target: T1, VEGF165; assay: competitive VEGF ELISA; panel B
VEGF165 [7] = molecular target: T1, VEGF165; assay: VEGF binding assay
VEGF165 [8] = molecular target: T1, VEGF165; assay: competitive VEGF ELISA; panel A
VEGF165 [9] = molecular target: T1, VEGF165; assay: Biacore; 4000RU VEGF
VEGF165 [10] = molecular target: T1, VEGF165; assay: Biacore; 500RU VEGF
VEGF165 [11] = molecular target: T1, VEGF165; assay: competitive VEGF ELISA
VEGF165 [12] = molecular target: T2, VEGF165 (UniProt P15692-4 27-191); assay: competitive VEGF ELISA (VEGF binding assay)
T2 construct: also called recombinant VEGF (R&D Systems); immobilized VEGF
Protocol: (§1) Dimers wherein two D2 domains of sFLT are coupled via PEG linkers were prepared by reaction of the partially-reduced monomer with homobifunctional PEGs. Products were isolated by SEC (FIG. 5) and analyzed for VEGF binding affinity using competitive ELISA (FIG. 9). VEGF165 binding of three SEC purified D2 domain constructs including dimers prepared with 0.6, 2 and 5 kDa linkers and as well as the 10 and 20 kDa 4-arm PEG conjugates as described in Example 1 was determined. The assay was performed by binding to 10 pM recombinant VEGF (R&D Systems) in phosphate-buffered saline. The sample concentrations ranged from 0.0763 to 156 pM. Following binding, the free VEGF concentration was determined by a VEGF-specific ELISA (R&D Systems). […] D2 monomer purified directly from medium (“D2 HPC4 eluate Pk C”) had no detectable binding to VEGF165.

VEGF165 [13] = molecular target: T2, VEGF165; assay: competitive VEGF ELISA
Protocol: Dimer was prepared using 100 uM CuCl₂ and the products assayed for VEGF binding activity by competitive VEGF ELISA. […] This value was similar to that obtained for dimers obtained without copper oxidation (FIG. 5). This molecule lacks the hinge region and Fc domain of sFLT01 and represents a minimal high affinity VEGF binding entity. Its low MW may provide advantages in localized delivery, including higher diffusion through tissue, more rapid systemic clearance thus reducing potential side effects of VEGF antagonism, and greater stability upon formulation into slow-release depots.
Dimers wherein two D2 domains of sFLT are coupled via PEG linkers were prepared by reaction of the partially-reduced monomer with homobifunctional PEGs. Products were isolated by SEC (FIG. 5) and analyzed for VEGF binding affinity using competitive ELISA (FIG. 9). VEGF165 binding of three SEC purified D2 domain constructs including dimers prepared with 0.6, 2 and 5 kDa linkers and as well as the 10 and 20 kDa 4-arm PEG conjugates as described in Example 1 was determined. The assay was performed by binding to 10 pM recombinant VEGF (R&D Systems) in phosphate-buffered saline. The sample concentrations ranged from 0.0763 to 156 pM. Following binding, the free VEGF concentration was determined by a VEGF-specific ELISA (R&D Systems). […]

VEGF165 [14] = molecular target: T2, VEGF165; assay: competitive VEGF ELISA: binding to 10 pM recombinant VEGF, free VEGF measured by ELISA
Protocol: as §1

VEGF165 [15] = molecular target: T2, VEGF165; assay: Biacore

Molecule: disulfide-linked D2 dimer (D2 domain with HPC4 tag and C-terminal cysteine) (from UniProt P17948 133-226)
EC50 (VEGF165 [1]): 0.0048 nM
EC50 (VEGF165 [2]): 0.0109 nM
EC50 (VEGF165 [3]): 0.00708 nM
EC50 (VEGF165 [4]): 0.0119 nM

B2: Four-arm D2 tetramer linked with 4-arm PEG of 20 kDa (receptor)
chain: RPFVEMYSEIPEIIHMTEGRELVIPCRVTSPNITVTLKKFPLDTLIPDGKRIIWDSRKGFIISNATYKEIGLLTCEATVNGHLYKTNYLTHRQT
modifications: free cysteine coupled to a 4-arm 20 kDa maleimide PEG
Kd (VEGF165 [5]): 1.5 nM
EC50 (VEGF165 [8]): 0.00478 nM
Kd (VEGF165 [9]): 0.17 nM
Kd (VEGF165 [10]): 0.1 nM

B4: PEG-linked D2 dimer, 5 kDa linker (receptor)
chain: B2 chain
modifications: free cysteine of partially-reduced monomer coupled to a homobifunctional PEG linker of 5 kDa
EC50 (VEGF165 [6]): 0.00675 nM

B7: Four-arm D2 tetramer linked with 4-arm PEG of 10 kDa (receptor)
chain: B2 chain
modifications: free cysteine coupled to a 4-arm 10 kDa PEG
Kd (VEGF165 [5]): 0.84 nM
EC50 (VEGF165 [8]): 0.00374 nM
Kd (VEGF165 [9]): 0.35 nM
Kd (VEGF165 [10]): 0.14 nM

B8: PEG-linked D2 dimer, 0.6 kDa linker (receptor)
chain: B2 chain
modifications: free cysteine of partially-reduced monomer coupled to a homobifunctional PEG linker of 0.6 kDa (BM(PEG)3)
EC50 (VEGF165 [6]): 0.00471 nM

Now from value to molecule:

EC50 (VEGF165 [4]): 0.172 nM and 0.254 nM
Molecule: D2-Cys protein (D2 domain of FLT-1 with HPC4 tag and C-terminal cysteine), monomer (from UniProt P17948 133-226)

Kd (VEGF165 [5]): 2.5 nM
EC50 (VEGF165 [6]): 0.00472 nM
EC50 (VEGF165 [7]): 0.0054 nM
EC50 (VEGF165 [8]): 0.0047 nM
Kd (VEGF165 [9]): 0.8 nM
Kd (VEGF165 [10]): 0.61 nM
EC50 (VEGF165 [11]): 3.7 nM
B1: sFLT01 (D2-9Gly-Fc) (Fc fusion)
chain: RPFVEMYSEIPEIIHMTEGRELVIPCRVTSPNITVTLKKFPLDTLIPDGKRIIWDSRKGFIISNATYKEIGLLTCEATVNGHLYKTNYLTHRQTGGGGGGGGG

EC50 (VEGF165 [8]): 0.00579 nM
B3: PEG-linked D2 dimer, 2 kDa linker (receptor)
chain: B2 chain
modifications: free cysteine of partially-reduced monomer coupled to a homobifunctional PEG linker of 2 kDa

Kd (VEGF165 [5]): 1.69 nM
EC50 (VEGF165 [12]): 0.008 to 0.01 nM
fold higher EC50 than sFLT01 (VEGF165 [12]): 2 fold
Kd (VEGF165 [9]): 11.4 nM
fold higher EC50 than sFLT01 (VEGF165 [13]): 2.2 fold
Kd (VEGF165 [10]): 0.53 nM
EC50 (VEGF165 [11]): 8.3 nM
B5: disulfide-linked D2 dimer (D2 domain with HPC4 tag and C-terminal cysteine) (receptor)
chain: B2 chain
modifications: disulfide-linked dimer, presumably via the C-terminal cysteine
notes: Two preparations are kept under one id; One formed spontaneously and was SEC-purified from PEGylation reactions or conditioned medium, without copper oxidation ('D2 HPC4 eluate Pk B', 'D2 Pk B'); also called Cu-oxidized dimer; D2 HPC4 eluate Pk B

Kd (VEGF165 [5]): 9.61 nM
Kd (VEGF165 [9]): 28.9 nM
percent of the binding affinity of sFLT01 (VEGF165 [14]): < 3%
fold higher EC50 than sFLT01 (VEGF165 [13]): ~35 fold
Kd (VEGF165 [10]): 11.5 nM
Kd (VEGF165 [15]): ~10 nM
EC50 (VEGF165 [11]): 131 nM
B6: D2-Cys protein (D2 domain of FLT-1 with HPC4 tag and C-terminal cysteine), monomer (receptor)
chain: B2 chain
notes: Expressed in HEK293-EBNA cells and purified on an HPC4 antibody column; glycosylated; also called D2 monomer; TCEP-reduced D2 monomer

Reference: patent publication US20130324465A1 (Sanofi, published 2013)
